T1: RAD51 (wild-type human RAD51 DNA strand exchange protein) (human, UniProt Q06609 1-339)
T1 sequence: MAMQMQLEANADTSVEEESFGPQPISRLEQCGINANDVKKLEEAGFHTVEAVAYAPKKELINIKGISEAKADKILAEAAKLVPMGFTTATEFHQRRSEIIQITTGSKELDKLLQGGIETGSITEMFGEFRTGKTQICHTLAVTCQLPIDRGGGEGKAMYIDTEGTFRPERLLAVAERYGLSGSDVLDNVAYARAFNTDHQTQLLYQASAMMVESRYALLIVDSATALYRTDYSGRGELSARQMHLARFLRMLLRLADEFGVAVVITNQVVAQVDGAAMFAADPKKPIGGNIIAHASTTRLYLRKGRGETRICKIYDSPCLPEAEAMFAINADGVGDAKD

B1: dT60 (poly(dT)-60) (ssDNA)
DNA: TTTTTTTTTTTTTTTTTTTTTTTTTTTTTTTTTTTTTTTTTTTTTTTTTTTTTTTTTTTT

Experiments:
[1] = target: T1, RAD51 (wild-type human RAD51 DNA strand …); test: fluorescence polarisation
[2] = target: RAD51 E42A (human, UniProt Q06609 1-339, E42A); test: FRET
[3] = target: RAD51 E237A (human, UniProt Q06609 1-339, E237A); test: FRET
[4] = target: RAD51 E59A (human, UniProt Q06609 1-339, E59A); test: FRET
[5] = target: RAD51 wild type (human, UniProt Q06609 1-339); test: FRET

Row | Binder | Kd [1] | binding result [2] | binding result [3] | binding result [4] | binding result [5]
1 | KEPTLLGFHTASGKKVKIAKESLDKVKNLFDEKEQ (FITC (fluorescein) on the N-terminus, as printed: FITC-KEPT...) [FITC-BRC4 peptide (BRC4 repeat of BRCA2)] | 34 ± 5 nM |  |  |  | 
2 | B1 |  | binds | binds | binds | binds
